Where a chain is given by its changes, count along the chain named. Names and notes keep the numbering of the source. Values joined by “and” are separate entries in the source; they are usually repeats but may differ in a detail not shown here. Equal entries are not always repeated.
Columns and labels:
fibronectin = fibronectin (Homo sapiens, UniProt P02751); assay: Non-specific binding to fibronectin (fibronectin-immobilized microplate, biotinylated HRP, A450); settings: absorbance at 450 nm
Description: The fibronectin-binding of each low-pI TM2 was compared using a microplate to which fibronectin was immobilized. The concentration of fibronectin was adjusted to 50 μg/mL with a fixation solution exclusive for a New ELISA plate, and the fibronectin solution (50 μL) was added to each New ELISA plate (Sumitomo Bakelite), followed by shaking at 37° C. for 4 hours for immobilization. Then, the plate was washed with 0.1% Triton X-100-containing PBS (300 μL) three times and was then dried naturally.
TM2, K26A, K73Q, R104E, K141E, and R104EK141E mutants (50 μL each) were each added to the corresponding well of the plate and left at room temperature for 1 hour. The plate was washed with 300 μL/well of PBST (PBS buffer containing 0.1% Tween 20) three times. Then, biotinylated HRP diluted 5000 times with PBST containing 0.5% BSA was added at 50 μL/well and allowed to react with the mutant at room temperature for 1 hour. After washing with 300 μL/well of PBST three times, 50 μL/well of 1-Step Ultra TMB-ELISA solution was added to each well for color development. After termination of the color development with 50 μL/well of 2M sulfuric acid, absorbance at 450 nm was measured with an Infinite 200 microplate reader.
Non-specific binding of HALU TM2 to fibronectin was also investigated as in paragraph 1-10) of Example 1.

[1] = Biotin-binding test (Biacore 3000, biotin-LC-BSA immobilized)
Description: High-purity BSA (Sigma, 2 mg) and NHS-LC-biotin (Pierce, 1 mg) were dissolved in 50 mM sodium borate (pH 8.0, 1 mL) and were incubated at 4° C. for 2 hours. The solution was put into a dialysis tube (MWCO 6-8,000) and was dialyzed with 50 mM sodium carbonate (pH 6.7) at 4° C. overnight. The resulting biotin-LC-BSA conjugate (MW: 67 kDa, 30 μM) was used as a ligand for a Biacore (registered trademark) biosensor.
Biotin-LC-BSA and BSA serving as a negative control were immobilized on CM5 sensor chips by amine coupling method. The amount for immobilization was adjusted to about 200 RU. The chips to which BSA was immobilized were disposed in flow cells 1 and 3, while the chips to which biotin-LC-BSA was immobilized were disposed in flow cells 2 and 4.
Accordingly, seven step measurement (3.125, 6.25, […], 25, 50, 100, and 200 nM) was conducted from the lowest concentration, without recycling steps. The data of BSA as reference was deducted from the data of BSA-LC-biotin. The measurement was performed at 25° C. The resulting sensorgrams were subjected to reaction kinetics analysis using analysis software BIAevaluation ver. 4.1 with a 1:1 binding model to calculate the binding rate constant (ka) and the dissociation rate constant (kd). The dissociation constant (KD) was determined from kd/ka. In the case where no recycling step is employed, the Rmax (maximum amount of binding analyte) decreases at each measurement. Accordingly, in the analysis, the Rmax was calculated by conducting local fitting for each concentration, and only the data of analyte concentrations that were approximated to the 1:1 binding model was employed.
TM2 and HALU TM2 used as analytes were prepared by purification with 2-iminobiotin agarose in accordance with a common method and dialysis with 20MM KPi (pH 7) overnight. The analytes were each adjusted to about 50 μg/mL in 10 mM acetate buffer (pH 5, Biacore).
The immobilization of the ligand and measurement and analysis of specific interaction with the analytes were conducted as in paragraph 2-7-2).

[2] = Isoelectric focusing electrophoresis (pI observed); type: physicochemical; settings: pH 3 to 10 gel
Description: The isoelectric point of each low-pI TM2 was measured by isoelectric focusing electrophoresis using an XCell SureLock Mini-Cell (Invitrogen). In accordance with the instruction, each low-pI TM2 (500 ng) and an IEF sample buffer (pH 3 to 10 (2×), Invitrogen) were mixed and were added to a polyacrylamide gel (pH 3 to 10, IEF Gel, Invitrogen) at a pH ranging from 3 to 10, followed by electrophoresis at a variable voltage of 100 V for 1 hour, 200 V for 1 hour, and 500 V for 45 minutes in this order.
After the electrophoresis, the gel was shaken in a blotting buffer (0.7% acetic acid) for 10 minutes and then was transferred onto a PVDF membrane at 10 V for 1 hour using an XCell ll Blot Module (Invitrogen). The PVDF membrane was subjected to reaction with anti-TM2 rabbit antibody (PCT/W2006/326260) serving as a primary antibody and with alkaline phosphate-labeled anti-rabbit IgG antibody (BIO-RAD) serving as a secondary antibody, followed by detection of bands with Alkaline Phosphatase Substrate Kit II
The isoelectric point of the high-affinity TM2 was measured by isoelectric focusing electrophoresis using an XCell SureLock Mini-Cell (Invitrogen). […] The electric point of TM2 D40N having replacement of the […] amino acid was higher than that of the wild type TM2 also in the isoelectric focusing electrophoresis.
The isoelectric point of HALU TM2 was measured by isoelectric focusing electrophoresis using an XCell SureLock Mini-Cell (Invitrogen). In accordance with the instruction, bands of each HALU TM2 (4 μg) were detected by CBB staining. […] The observed isoelectric point of TM2 D40N was 9.7, and was reduced to 8.9 after introduction of mutation of R104E and was reduced to 7.3 to 7.5 after further introduction of mutation of K141E.

[3] = Heat stability of protein structure (soluble protein after heating, SDS-PAGE); type: physicochemical; settings: for Thermal stability (temp. at which 50% of protein was lost): heated for 20 minutes
Description: 3-8) Heat Stability of HALU TM2 Protein Structure Each of 0.2 μg/μL TM2 mutant solutions (10 μL (2 μg)) was heated at room temperature, 50, 60, 70, 80, 90, or 99° C. for 20 minutes. Then, the solution was centrifuged at 15000 rpm for 10 minutes, and the soluble protein in the supernatant was suspended in the same volume of 2×SDS sample buffer (250 mM Tris-HCl, pH 6.8, 20% 2-mercaptoethanol, 20% SDS, 20% glycerol). The suspension was heated at 95° C. for 10 minutes, followed by SDS-PAGE. The protein bands were detected by CBB staining A standard curve was prepared using a quantitative marker (LMW ELECTROPHORESIS CALIBRATION KIT; Pharmacia Biotech) with Las-3000 (FUJIFILM) to quantify the protein bands.

Sequence of fibronectin (P02751 32-2477, species assumed): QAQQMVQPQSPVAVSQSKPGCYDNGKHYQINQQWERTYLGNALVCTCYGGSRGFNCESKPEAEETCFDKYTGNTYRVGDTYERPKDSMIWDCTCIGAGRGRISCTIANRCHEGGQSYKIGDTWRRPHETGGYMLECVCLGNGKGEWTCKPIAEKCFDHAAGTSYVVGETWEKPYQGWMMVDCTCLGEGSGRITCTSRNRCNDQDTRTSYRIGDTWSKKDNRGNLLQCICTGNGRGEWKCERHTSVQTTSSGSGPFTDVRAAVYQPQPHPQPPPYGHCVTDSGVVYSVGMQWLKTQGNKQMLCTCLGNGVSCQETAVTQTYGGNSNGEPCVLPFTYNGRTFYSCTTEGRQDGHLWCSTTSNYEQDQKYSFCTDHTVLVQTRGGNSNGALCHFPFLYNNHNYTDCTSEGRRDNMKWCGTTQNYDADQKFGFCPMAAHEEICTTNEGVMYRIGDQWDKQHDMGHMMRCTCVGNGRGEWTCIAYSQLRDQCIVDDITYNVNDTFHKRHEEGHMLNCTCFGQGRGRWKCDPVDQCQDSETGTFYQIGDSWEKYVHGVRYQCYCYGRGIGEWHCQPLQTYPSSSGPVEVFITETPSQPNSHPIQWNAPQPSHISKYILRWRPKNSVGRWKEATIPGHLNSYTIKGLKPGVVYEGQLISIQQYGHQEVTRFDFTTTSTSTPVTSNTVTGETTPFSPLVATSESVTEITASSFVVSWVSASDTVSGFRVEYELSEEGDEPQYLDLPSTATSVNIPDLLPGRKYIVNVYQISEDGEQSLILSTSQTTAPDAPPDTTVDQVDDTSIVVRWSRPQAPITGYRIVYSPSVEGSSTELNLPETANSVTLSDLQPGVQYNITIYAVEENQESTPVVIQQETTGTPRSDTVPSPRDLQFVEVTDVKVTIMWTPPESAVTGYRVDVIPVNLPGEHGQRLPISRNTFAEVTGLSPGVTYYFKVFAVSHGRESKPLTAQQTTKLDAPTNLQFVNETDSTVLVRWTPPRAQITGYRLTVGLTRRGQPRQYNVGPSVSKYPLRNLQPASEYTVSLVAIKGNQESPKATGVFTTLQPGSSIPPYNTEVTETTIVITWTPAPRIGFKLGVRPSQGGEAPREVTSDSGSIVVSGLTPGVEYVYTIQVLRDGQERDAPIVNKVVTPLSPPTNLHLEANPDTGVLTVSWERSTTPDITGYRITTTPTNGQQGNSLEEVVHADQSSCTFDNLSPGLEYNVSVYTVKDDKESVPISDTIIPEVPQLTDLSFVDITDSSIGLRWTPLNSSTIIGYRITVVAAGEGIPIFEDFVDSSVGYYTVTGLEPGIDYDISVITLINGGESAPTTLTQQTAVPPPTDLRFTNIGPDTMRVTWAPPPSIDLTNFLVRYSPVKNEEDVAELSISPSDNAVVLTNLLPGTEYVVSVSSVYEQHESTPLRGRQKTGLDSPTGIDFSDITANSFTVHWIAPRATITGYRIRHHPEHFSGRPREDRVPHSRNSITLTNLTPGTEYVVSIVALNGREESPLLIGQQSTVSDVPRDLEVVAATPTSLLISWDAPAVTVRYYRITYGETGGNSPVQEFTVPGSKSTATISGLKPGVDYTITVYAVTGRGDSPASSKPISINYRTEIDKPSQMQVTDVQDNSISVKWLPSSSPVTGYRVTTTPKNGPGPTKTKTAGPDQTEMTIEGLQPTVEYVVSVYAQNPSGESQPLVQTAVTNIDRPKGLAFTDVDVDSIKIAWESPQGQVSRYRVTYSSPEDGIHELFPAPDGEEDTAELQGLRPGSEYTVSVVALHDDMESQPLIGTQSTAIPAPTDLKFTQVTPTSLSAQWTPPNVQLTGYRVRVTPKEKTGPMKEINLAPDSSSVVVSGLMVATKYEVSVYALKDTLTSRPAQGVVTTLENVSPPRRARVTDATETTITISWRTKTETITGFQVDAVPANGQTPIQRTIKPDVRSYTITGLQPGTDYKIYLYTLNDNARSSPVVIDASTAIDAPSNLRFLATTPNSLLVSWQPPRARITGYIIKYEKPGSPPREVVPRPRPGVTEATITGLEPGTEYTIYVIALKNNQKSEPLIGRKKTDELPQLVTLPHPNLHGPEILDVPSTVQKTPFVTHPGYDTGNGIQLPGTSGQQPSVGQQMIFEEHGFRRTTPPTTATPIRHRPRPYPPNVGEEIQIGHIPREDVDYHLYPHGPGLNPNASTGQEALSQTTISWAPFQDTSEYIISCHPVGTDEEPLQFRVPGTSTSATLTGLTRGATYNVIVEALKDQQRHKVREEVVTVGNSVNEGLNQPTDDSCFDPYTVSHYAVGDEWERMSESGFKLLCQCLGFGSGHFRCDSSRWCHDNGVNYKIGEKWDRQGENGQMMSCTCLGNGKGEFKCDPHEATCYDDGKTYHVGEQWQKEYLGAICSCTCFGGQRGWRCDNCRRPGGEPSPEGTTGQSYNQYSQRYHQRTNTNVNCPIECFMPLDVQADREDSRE

B1: TM2: wild type tamavidin 2, biotin-binding protein from Pleurotus cornucopiae, amino acid sequence SEQ ID NO: 2 (protein, listed as Pleurotus cornucopiae)
chain: MSDVQSSLTGTWYNELNSKMELTANKDGTLTGKYLSKVGDVYVPYPLSGRYNLQPPAGQGVALGWAVSWENSKIHSATTWSGQFFSESSPVILTQWLLSSSTARGDVWESTLVGNDSFTKTAPTEQQIAHAQLHCRAPRLK
fibronectin; listed as wild type TM2
  Binding of fibronectin (A450): 1.3 to 1.4
[1]; dissociation monitored for 60 minutes
  dissociation from biotin-LC-BSA: not dissociated
[2]
  pI observed: 8.5 to 8.8
[2]; listed as TM2WT
  pI observed: 8.5 to 8.8
[2]; listed as wild type TM2
  pI observed: 8.2 to 8.6 and 8.5 to 8.8
[3]
  Thermal stability (temp. at which 50% of protein was lost): 87.5 °C
[3]; listed as TM2WT
  Thermal stability (temp. at which 50% of protein was lost): 86 °C

B2: TM2 D40NR104EK141E: TM2 mutant having mutation of D40N and R104EK141E; SEQ ID NO: 24 (protein)
chain: B1 chain with D40N, R104E, K141E
modifications: Synthetic TM2 D40NR104EK141E
fibronectin
  Binding of fibronectin (A450): extremely low
fibronectin; listed as D40NR104EK141E
  Binding of fibronectin (A450): 0.12
[1]; Biotin-BSA (22.4 Å)
  ka: 1.5 × 10^6
[1]; Biotin-BSA (22.4 Å), values in parentheses
  kd: (1.4 × 10^−8)
[2]
  pI observed: 7.3 to 7.5
[3]; heated at 99° C. for 20 minutes
  protein remained after heating: 78%
[3]
  Thermal stability (temp. at which 50% of protein was lost): 99 °C or

— patent US8304236B2, “Modified biotin-binding protein” (Japan Tobacco Inc., priority 2008, dated 2012)
